{"source": "patent US20150266962A1", "about": "(Pfizer, published 2015)", "key": {"[1]": {"target": "T1, recombinant human IL-13 receptor alpha 2 (hIL-13-Rα2) (human, UniProt Q14627 27-343)", "T1 construct": "Recombinant soluble antigen coated on ELISA plates or used in Biacore; also called rec hIL-13Rα2; rhIL-13Rα2", "T1 sequence (looked up)": "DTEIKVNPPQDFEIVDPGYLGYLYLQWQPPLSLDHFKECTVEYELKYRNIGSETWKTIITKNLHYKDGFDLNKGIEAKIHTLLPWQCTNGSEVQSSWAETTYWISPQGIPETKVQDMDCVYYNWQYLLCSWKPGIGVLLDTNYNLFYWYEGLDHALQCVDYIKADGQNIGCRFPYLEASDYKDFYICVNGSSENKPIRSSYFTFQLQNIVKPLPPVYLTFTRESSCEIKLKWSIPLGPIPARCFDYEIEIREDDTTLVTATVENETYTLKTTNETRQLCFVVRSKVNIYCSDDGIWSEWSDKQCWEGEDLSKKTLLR", "experiment": "competition ELISA on hIL-13-Rα2, competitor biotinylated ch08", "protocol": "The binding properties of the cysteine mutants to hIL-13-Rα2 were evaluated by a standard ELISA and a competition ELISA. […] This conclusion was confirmed by a competition ELISA with biotinylated ch08."}, "[2]": {"target": "T1, recombinant human IL-13 receptor alpha …", "experiment": "standard ELISA on hIL-13-Rα2 (given as ED50)"}, "[3]": {"target": "T1, recombinant human IL-13 receptor alpha …", "experiment": "competition ELISA on coated recombinant hIL-13-Rα2, competitor biotin-ch08", "protocol": "A competition ELISA was performed to assess whether hu08 1.0 and hu08 v1.1 compete with ch08 for IL-13-Rα2 binding. Recombinant hIL-13-Rα2 was coated onto 96-well plates at 50 ul of […] in PBS overnight at 4° C. Plates were then blocked and washed following standard ELISA protocol. A 3-fold serially diluted ch08, hu08 1.0 and hu08 v1.1, and negative control ch07 (2× final concentration) were mixed with biotinylated ch08 (2×EC₅₀). 50 μl of the antibody and biotin-ch08 mixture were added to the plate and incubated for 1 hour at room temperature. The amount of biotin-ch08 bound was detected by HRP conjugated streptavidin."}, "[4]": {"target": "T1, recombinant human IL-13 receptor alpha …", "experiment": "SPR Biacore T100, pH 7.4 (column head prints nM; kd/ka gives M); pH 7.4", "protocol": "(§1) To assess the binding kinetics of the ch07 and ch08 antibodies, SPR (Surface Plasmon Resonance) experiments were conducted on a Biacore® T100 or T200 instrument using a Biacore® human Fab Capture Kit (GE Healthcare). All data was analyzed using the Biacore® T100 evaluation software version 2.0 with a 1:1 Langmuir binding model."}, "[5]": {"target": "T1, recombinant human IL-13 receptor alpha …", "experiment": "SPR Biacore T100, pH 6.0", "protocol": "as §1"}, "[6]": {"target": "T1, recombinant human IL-13 receptor alpha …", "experiment": "direct ELISA on coated recombinant hIL-13-Rα2", "protocol": "Humanized hu08 binding to recombinant hIL-13-Rα2 was evaluated by a standard direct ELISA. Recombinant hIL-13-Rα2 was coated onto a 96-well plate. Serially diluted chimeric antibodies or humanized antibodies in combinations of heavy and light chains of versions 1.0 and 1.1 e.g. hu08 v1.0 HC/1.0 LC, hu08 v1.0 HC/v1.1 LC, hu08 v1.1 HC/v1.0 LC, and hu08 v1.1 HC/v1.1 LC, were added to the plate and incubated at room temperature for 1-2 hours. The binding was detected by HRP conjugated goat anti-human Ig Kappa."}, "[7]": {"target": "T2, cynomolgus monkey IL-13-Rα2 ECD/TM domain with C-terminal Flag tag, on transfected HEK293 cells (cynomolgus monkey, UniProt Q14627 27-363 (human entry))", "T2 construct": "also called cyno-IL-13-Rα2; cyno IL-13Rα2; not shown: Flag tag at the C-terminal end", "T2 chain": "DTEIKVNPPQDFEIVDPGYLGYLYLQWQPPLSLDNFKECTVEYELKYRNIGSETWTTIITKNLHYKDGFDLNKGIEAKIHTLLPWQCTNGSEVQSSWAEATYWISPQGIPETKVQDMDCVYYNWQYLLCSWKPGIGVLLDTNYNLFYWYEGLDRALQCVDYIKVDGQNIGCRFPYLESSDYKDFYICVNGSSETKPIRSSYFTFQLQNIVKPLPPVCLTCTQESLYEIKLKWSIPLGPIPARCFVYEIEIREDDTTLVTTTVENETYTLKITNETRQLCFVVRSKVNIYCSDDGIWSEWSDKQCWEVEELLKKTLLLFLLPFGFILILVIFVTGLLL", "experiment": "FACS on HEK293 cells transfected with cyno-IL-13-Rα2 (given as ED50)", "protocol": "The ECD/TM domain of cyno IL-13-Rα2 fused with Flag tag at the C-terminal end was cloned into the pSMED2 expression vector. HEK293 suspension cells were transiently transfected with cyno-IL-13-Rα2 containing plasmid and pSMED2 vector (as a mock transfection). The cells were harvested 72 hours later and subjected to FACS analysis. 4 antibodies including ch07, ch08, hu08v1.0/1.0 and hu08v1.1/1.1 were tested. The binding on the cell surface cyno-IL-13-Rα2 was detected with R-Phycoerythrin-labeled goat anti-human or mouse IgG."}, "[8]": {"target": "T1, recombinant human IL-13 receptor alpha …", "experiment": "SPR Biacore T100, pH 7.4", "protocol": "as §1"}}}
{"binder": "humanized antibody hu08 v1.0 HC/v1.0 LC (antibody, IgG1, Humanized IgG1/kappa; also called hu08 v1.0/1.0; hu08v1.0/1.0) heavy: not shown light: DIQMTQSPSSLSASVGDRVTITCKASQDVGTAVAWYQQKPGKAPKLLIYSASYRSTGVPSRFSGSGSGTDFTLTISSLQPEDFATYYCQHHYSAPWTFGGGTKVEIKRTVAAPSVFIFPPSDEQLKSGTASVVCLLNNFYPREAKVQWKVDNALQSGNSQESVTEQDSKDSTYSLSSTLTLSKADYEKHKVYACEVTHQGLSSPVTKSFNRGEC", "values": [{"measurement": "IC50", "setting": "[1]", "result": 2.01, "unit": "nM"}, {"measurement": "EC50", "setting": "[2]", "result": 0.11, "unit": "nM"}, {"measurement": "IC50", "setting": "[3]", "result": 2.12, "unit": "nM"}, {"measurement": "Kd", "setting": "[4]", "result": 2.52, "unit": "nM"}, {"measurement": "koff", "setting": "[5]", "result": 0.000234, "unit": "s⁻¹"}, {"measurement": "kon", "setting": "[5]", "result": 52900, "unit": "M⁻¹ s⁻¹"}, {"measurement": "EC50", "setting": "[6]", "result": 0.175, "unit": "nM"}, {"measurement": "EC50", "setting": "[7]", "result": 1.96, "unit": "nM"}, {"measurement": "koff", "setting": "[8]", "result": 0.000246, "unit": "s⁻¹"}, {"measurement": "kon", "setting": "[8]", "result": 97500, "unit": "M⁻¹ s⁻¹"}]}
